Like-named read-outs stand apart in the source and are kept apart here.
Test system: Rat Retina
Experimental: The following experiment was conducted in order to assess changes in gene expression induced in the retina after intraocular injection of α2 macroglobulin protein. 2 μg of α2 macroglobulin protein was intraocularly injected into the right eye of rats (n=3) and the left eye was used as a control. One rat was tested at Day 3, one rat was tested at Day 7 and one rat was tested at Day 14. Retinas were isolated and mRNA was collected. Samples from each of the rats were studied by gene microassays. Retinas were carefully dissected out to insure that only retinal mRNAs were prepared for gene microarray studies. Samples were obtained from control eyes.
Total RNA was isolated from retinal tissue using TRIZOL® (Life Technologies). RNA was then further purified using the RNAEASY® (QIAGEN®). The integrity of the RNA samples was assessed by running aliquots on RNA 6000 Nano LabChip (Agilent) using the 2100 bioanalyzer (Agilent).
Probe synthesis, hybridization and scanning were done according to Affymetrix protocol, as a service at the McGill University and Genome Quebec Innovation Centre. For the experiments shown, Rat U34 Genome Arrays (8,700 genes, Affymetrix) were used. Briefly, RNA samples were first converted to double stranded cDNA (T7-(dT)24 primer (Genset)). Then the cDNAs were purified and used to generate the biotinylated cRNA probes (Bioarray High Yield RNA transcript labeling kit (Enzo diagnostics)). An aliquot of the purified cRNA was analyzed on RNA 6000 Nano LabChip (Agilent) to verify the integrity and size distribution. Immediately after hybridization the chip was placed in the Affymetrix GeneChip Fluidics Station 400 (Affymetrix). In total, 10 low-stringency washes (63 SSPE, 0.01% Tween-20, 0.005% Antifoam) and 4 high-stringency washes (100 mM MES, 0.1 M NaCl, 0.01% Tween-20, 50 C) were performed (all reagents from Sigma). The array was then incubated with SAPE® (streptavidin/phycoerythrin stain, Molecular Probes), followed by 10 low stringency washes. The array was incubated with biotinylated anti-streptavidin antibody (Vector Laboratories) and washed again with 15 low stringency washes. Specifically bound probe was detected by placing the array in the Agilent GeneArray scanner 2500 (Affymetrix). The scanned images were analyzed using the Microarray Analysis Suite version 5.0 (Affymetrix).
The fold change was analyzed by […] data for the control eye from the data on the eye injected with α2 macroglobulin. A fold change of 2 or greater indicates upregulation. A fold of 0.5 to 2 indicates no change. A fold change of 0.5 or less indicates downregulation.

[1] = gene complexin 2 (1368584_a_at)
[2] = gene crystallin, beta A2 (1388385_at)
[3] = gene crystallin, beta B1 (1369985_at)
[4] = gene crystallin, beta B2 (1367684_at)
[5] = gene crystallin, beta B3 (1367990_at)
[6] = gene crystallin, gamma N (predicted) (1384241_at)
[7] = gene death effector domain-containing (1369003_at)
[8] = gene fibrinogen-like 2 (1392894_at)
[9] = gene forkhead box E3 (1370797_at)
[10] = gene glycoprotein 2 (zymogen granule membrane) (1386933_at)
[11] = gene glycoprotein (transmembrane) nmb (1368187_at)
[12] = gene guanylate nucleotide binding protein 2 (1368332_at)
[13] = gene interferon induced transmembrane protein 1 (predicted) (1372013_at)
[14] = gene lens intrinsic membrane protein 2 (1368493_at)
[15] = gene membrane metallo endopeptidase (1370072_at)
[16] = gene membrane-spanning 4-domains, subfamily A, member 6B (1390510_at)
[17] = gene procollagen, type III, alpha 1 (1370959_at)
[18] = gene procollagen, type IV, alpha 1 (1372439_at)
[19] = gene procollagen, type IV, alpha 1 (1373245_at)
[20] = gene serine (or cysteine) peptidase inhibitor, clade G, member 1 (1372254_at)
[21] = gene similar to Beta crystallin S (Gamma crystallin S) (1388435_at)
[22] = gene similar to FRBZ1 protein (FRBZ1) (predicted) (1398217_at)
[23] = gene similar to Phakinin (Beaded filament structural protein 2) (1383812_at)
[24] = gene similar to RCK (predicted) (1389868_at)
[25] = gene similar to RIKEN cDNA 1300010M03 (predicted) (1376087_at)
[26] = gene similar to RIKEN cDNA 1500009M05 (predicted) (1382193_at)
[27] = gene similar to RIKEN cDNA 4930555G01 (predicted) (1391152_at)
[28] = gene similar to RNA-binding protein Musashi2-S (predicted) (1390813_at)
[29] = gene similar to keratin complex 2, basic, gene 6a (1373349_at)
[30] = gene similar to mKIAA1450 protein (predicted) (1391315_at)
[31] = gene similar to serine (or cysteine) proteinase inhibitor (1388746_at)
[32] = gene solute carrier family 6 (neurotransmitter transporter, GABA) (1369715_at)
[33] = gene solute carrier family 6 (neurotransmitter transporter, taurine) (1368778_at)
[34] = gene spectrin alpha 1 (1386212_at)

B1: α2m: α2 macroglobulin protein injected intraocularly into normal rat eyes (protein, UniProt P06238 28-1472, looked up)
Alpha-2-macroglobulin: SAPQKPIYMVMVPSLLHAGTPEKACFLFSHLNETVAVRVSLESVRGNQSLFTDLVVDKDLFHCTSFTVPQSSSDEVMFFTVQVKGATHEFRRRSTVLVKKKESLVFAQTDKPIYKPGQTVRFRVVSLDESFHPLNELIPLLYIQDPKNNRIAQWQNFNLEGGLKQLSFPLSSEPTQGSYKVVIRTESGRTVEHPFSVEEFVLPKFEVRVTVPETITILEEEMNVSVCGIYTYGKPVPGRVTVNICRKYSNPSNCFGEESVAFCEKLSQQLDGRGCFSQLVKTKSFQLKRQEYEMQLDVHAKIQEEGTGVEETGKGLTKITRTITKLSFVNVDSHFRQGIPFVGQVLLVDGRGTPIPYETIFIGADEANLYINTTTDKHGLARFSINTDDIMGTSLTVRAKYKDSNACYGFRWLTEENVEAWHTAYAVFSPSRSFLHLESLPDKLRCDQTLEVQAHYILNGEAMQELKELVFYYLMMAKGGIVRAGTHVLPLKQGQMRGHFSILISMETDLAPVARLVLYAILPNGEVVGDTAKYEIENCLANKVDLVFRPNSGLPATRALLSVMASPQSLCGLRAVDQSVLLMKPETELSASLIYDLLPVKDLTGFPQGADQREEDTNGCVKQNDTYINGILYSPVQNTNEEDMYGFLKDMGLKVFTNSNIRKPKVCERLRDNKGIPAAYHLVSQSHMDAFLESSESPTETRRSYFPETWIWDLVVVDSAGVAEVEVTVPDTITEWKAGAFCLSNDTGLGLSPVVQFQAFQPFFVELTMPYSVIRGEAFTLKATVLNYLPTCIRVAVQLEASPDFLAAPEEKEQRSHCICMNQRHTASWAVIPKSLGNVNFTVSAEALNSKELCGNEVPVVPEQGKKDTIIKSLLVEPEGLENEVTFNSLLCPMGAEVSELIALKLPSDVVEESARASVTVLGDILGSAMQNTQDLLKMPYGCGEQNMVLFAPNIYVLDYLNETQQLTQEIKTKAIAYLNTGYQRQLNYKHRDGSYSTFGDKPGRNHANTWLTAFVLKSFAQARKYIFIDEVHITQALLWLSQQQKDNGCFRSSGSLLNNAMKGGVEDEVTLSAYITIALLEMSLPVTHPVVRNALFCLDTAWKSARGGAGGSHVYTKALLAYAFALAGNQDTKKEILKSLDEEAVKEEDSVHWTRPQKPSVSVALWYQPQAPSAEVEMTAYVLLAYLTTEPAPTQEDLTAAMLIVKWLTKQQNSHGGFSSTQDTVVALHALSKYGSATFTRAKKAAQVTIHSSGTFSTKFQVNNNNQLLLQRVTLPTVPGDYTVKVTGEGCVYLQTSLKYSVLPREEEFPFTVVVQTLPGTCEDPKAHTSFQISLNISYTGSRSESNMAIADVKMVSGFIPLKPTVKMLERSVHVSRTEVSNNHVLIYLDKVSNQTVNLSFTVQQDIPIRDLKPAVVKVYDYYEKDEFAVAKYSAPCSTDYGNA
Fold Change (α2m vs normal) Day 7 (gene complement factor B (1389470_at)): 3.3 | Fold Change (α2m vs normal) Day 3 [1]: 0.5 | Fold Change (α2m vs normal) Day 7 [1]: 0.2 | Fold Change (α2m vs normal) Day 3 [2]: 0.5 | Fold Change (α2m vs normal) Day 7 [2]: 3.6 | Fold Change (α2m vs normal) Day 14 [2]: 2.0 | Fold Change (α2m vs normal) Day 3 [3]: 0.5 | Fold Change (α2m vs normal) Day 7 [3]: 3.4 | Fold Change (α2m vs normal) Day 14 [3]: 2.0 | Fold Change (α2m vs normal) Day 3 [4]: 0.4 | Fold Change (α2m vs normal) Day 7 [4]: 3.7 | Fold Change (α2m vs normal) Day 14 [4]: 2.2 | Fold Change (α2m vs normal) Day 3 [5]: 0.4 | Fold Change (α2m vs normal) Day 7 [5]: 4.2 | Fold Change (α2m vs normal) Day 14 [5]: 2.0 | Fold Change (α2m vs normal) Day 3 [6]: 0.5 | Fold Change (α2m vs normal) Day 7 [6]: 3.9 | Fold Change (α2m vs normal) Day 3 [7]: 0.5 | Fold Change (α2m vs normal) Day 7 [7]: 0.4 | Fold Change (α2m vs normal) Day 3 (gene decorin (1370956_at)): 3.7 | Fold Change (α2m vs normal) Day 7 (gene decorin (1370956_at)): 12.6 | Fold Change (α2m vs normal) Day 3 [8]: 2.1 | Fold Change (α2m vs normal) Day 7 [8]: 2.1 | Fold Change (α2m vs normal) Day 3 [9]: 0.4 | Fold Change (α2m vs normal) Day 7 [9]: 2.9 | Fold Change (α2m vs normal) Day 14 [9]: 2.2 | Fold Change (α2m vs normal) Day 3 [10]: 0.5 | Fold Change (α2m vs normal) Day 7 [10]: 2.1 | Fold Change (α2m vs normal) Day 3 [11]: 3.9 | Fold Change (α2m vs normal) Day 7 [11]: 7.4 | Fold Change (α2m vs normal) Day 3 [12]: 2.2 | Fold Change (α2m vs normal) Day 7 [12]: 2.1 | Fold Change (α2m vs normal) Day 3 [13]: 5.8 | Fold Change (α2m vs normal) Day 7 [13]: 4.2 | Fold Change (α2m vs normal) Day 3 [14]: 0.5 | Fold Change (α2m vs normal) Day 7 [14]: 2.5 | Fold Change (α2m vs normal) Day 3 (gene lumican (1367749_at)): 6.1 | Fold Change (α2m vs normal) Day 7 (gene lumican (1367749_at)): 4.1 | Fold Change (α2m vs normal) Day 14 (gene lumican (1367749_at)): 0.4 | Fold Change (α2m vs normal) Day 3 (gene lysozyme (1370154_at)): 7.8 | Fold Change (α2m vs normal) Day 7 (gene lysozyme (1370154_at)): 2.8 | Fold Change (α2m vs normal) Day 3 [15]: 0.5 | Fold Change (α2m vs normal) Day 7 [15]: 5.3 | Fold Change (α2m vs normal) Day 14 [15]: 2.2 | Fold Change (α2m vs normal) Day 3 [16]: 5.1 | Fold Change (α2m vs normal) Day 7 [16]: 2.1 | Fold Change (α2m vs normal) Day 3 [17]: 3.7 | Fold Change (α2m vs normal) Day 7 [17]: 3.4 | Fold Change (α2m vs normal) Day 3 [18]: 0.3 | Fold Change (α2m vs normal) Day 7 [18]: 17.5 | Fold Change (α2m vs normal) Day 14 [18]: 2.4 | Fold Change (α2m vs normal) Day 3 [19]: 0.3 | Fold Change (α2m vs normal) Day 7 [19]: 13.2 | Fold Change (α2m vs normal) Day 14 [19]: 2.3 | Fold Change (α2m vs normal) Day 3 [20]: 3.0 | Fold Change (α2m vs normal) Day 7 [20]: 3.3 | Fold Change (α2m vs normal) Day 3 [21]: 0.5 | Fold Change (α2m vs normal) Day 7 [21]: 2.8 | Fold Change (α2m vs normal) Day 14 [21]: 2.9 | Fold Change (α2m vs normal) Day 3 [22]: 0.5 | Fold Change (α2m vs normal) Day 7 [22]: 0.2 | Fold Change (α2m vs normal) Day 3 [23]: 0.4 | Fold Change (α2m vs normal) Day 7 [23]: 2.7 | Fold Change (α2m vs normal) Day 3 [24]: 0.5 | Fold Change (α2m vs normal) Day 7 [24]: 0.2 | Fold Change (α2m vs normal) Day 3 [25]: 0.5 | Fold Change (α2m vs normal) Day 7 [25]: 0.4 | Fold Change (α2m vs normal) Day 3 [26]: 0.4 | Fold Change (α2m vs normal) Day 7 [26]: 0.2 | Fold Change (α2m vs normal) Day 3 [27]: 2.0 | Fold Change (α2m vs normal) Day 7 [27]: 5.6 | Fold Change (α2m vs normal) Day 3 [28]: 0.5 | Fold Change (α2m vs normal) Day 7 [28]: 0.2 | Fold Change (α2m vs normal) Day 3 [29]: 7.3 | Fold Change (α2m vs normal) Day 7 [29]: 0.4 | Fold Change (α2m vs normal) Day 3 [30]: 0.5 | Fold Change (α2m vs normal) Day 7 [30]: 0.2 | Fold Change (α2m vs normal) Day 3 [31]: 0.4 | Fold Change (α2m vs normal) Day 7 [31]: 2.6 | Fold Change (α2m vs normal) Day 3 [32]: 0.5 | Fold Change (α2m vs normal) Day 7 [32]: 0.4 | Fold Change (α2m vs normal) Day 3 [33]: 0.5 | Fold Change (α2m vs normal) Day 7 [33]: 0.2 | Fold Change (α2m vs normal) Day 14 [33]: 2.3 | Fold Change (α2m vs normal) Day 3 [34]: 0.5 | Fold Change (α2m vs normal) Day 7 [34]: 2.1 | Fold Change (α2m vs normal) Day 3 (gene — (1393766_at, AI112375)): 0.4 | Fold Change (α2m vs normal) Day 7 (gene — (1393766_at, AI112375)): 0.3 | Fold Change (α2m vs normal) Day 14 (gene — (1393766_at, AI112375)): 3.6 | Fold Change (α2m vs normal) Day 3 (gene — (1394837_at, BF405797)): 0.3 | Fold Change (α2m vs normal) Day 7 (gene — (1394837_at, BF405797)): 0.2 | Fold Change (α2m vs normal) Day 3 (gene — (1395129_at, BE107340)): 0.5 | Fold Change (α2m vs normal) Day 7 (gene — (1395129_at, BE107340)): 0.3
